Experimental data reported in article PMC12429042, “Contribution of Second-Shell Residues to PLP-Dependent Transaminase Catalysis: A Case Study of D-Amino Acid Transaminase from Desulfomonile tiedjei” (International Journal of Molecular Sciences, 2025).

T1: DestiTA (Desulfomonile tiedjei, UniProt I4C827)
T1 construct: gene Desti_3054; recombinant in E. coli Rosetta(DE3) pLysS, codon-optimized gene in modified pET-21d; N-terminal (His)6-TEV tag cut with TEV protease; homodimer about 68 kDa by gel filtration
T1 sequence (I4C827 1-302): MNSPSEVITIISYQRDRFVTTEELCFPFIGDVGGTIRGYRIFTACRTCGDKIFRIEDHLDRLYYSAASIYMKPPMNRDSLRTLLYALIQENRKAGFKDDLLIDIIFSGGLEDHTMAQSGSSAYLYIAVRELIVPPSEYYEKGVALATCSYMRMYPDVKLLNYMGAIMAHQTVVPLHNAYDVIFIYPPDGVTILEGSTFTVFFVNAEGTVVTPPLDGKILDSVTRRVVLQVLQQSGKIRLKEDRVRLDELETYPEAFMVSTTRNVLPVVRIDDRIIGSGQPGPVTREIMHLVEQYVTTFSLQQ

B1: DestiTA T43E variant (enzyme, Desulfomonile tiedjei DSM 6799, UniProt I4C827 1-302, looked up)
chain: MNSPSEVITIISYQRDRFVTTEELCFPFIGDVGGTIRGYRIFEACRTCGDKIFRIEDHLDRLYYSAASIYMKPPMNRDSLRTLLYALIQENRKAGFKDDLLIDIIFSGGLEDHTMAQSGSSAYLYIAVRELIVPPSEYYEKGVALATCSYMRMYPDVKLLNYMGAIMAHQTVVPLHNAYDVIFIYPPDGVTILEGSTFTVFFVNAEGTVVTPPLDGKILDSVTRRVVLQVLQQSGKIRLKEDRVRLDELETYPEAFMVSTTRNVLPVVRIDDRIIGSGQPGPVTREIMHLVEQYVTTFSLQQ
notes: DestiTA of Desulfomonile tiedjei DSM 6799, gene Desti_3054, Uniprot ID I4C827_DESTA, with T43E; Made by single-primer site-directed mutagenesis; also called the T43E variant; source: E. coli, purified as described for the WT DestiTA; not shown: His6, N-terminal, cleaved
B2: DestiTA T199N variant (enzyme, Desulfomonile tiedjei DSM 6799, UniProt I4C827 1-302, looked up)
chain: MNSPSEVITIISYQRDRFVTTEELCFPFIGDVGGTIRGYRIFTACRTCGDKIFRIEDHLDRLYYSAASIYMKPPMNRDSLRTLLYALIQENRKAGFKDDLLIDIIFSGGLEDHTMAQSGSSAYLYIAVRELIVPPSEYYEKGVALATCSYMRMYPDVKLLNYMGAIMAHQTVVPLHNAYDVIFIYPPDGVTILEGSTFNVFFVNAEGTVVTPPLDGKILDSVTRRVVLQVLQQSGKIRLKEDRVRLDELETYPEAFMVSTTRNVLPVVRIDDRIIGSGQPGPVTREIMHLVEQYVTTFSLQQ
notes: DestiTA of Desulfomonile tiedjei DSM 6799, gene Desti_3054, Uniprot ID I4C827_DESTA, with T199N; Made by single-primer site-directed mutagenesis; also called the T199N variant; source: E. coli, purified as described for the WT DestiTA; not shown: His6, N-terminal, cleaved
B3: DestiTA T199Q variant (enzyme, Desulfomonile tiedjei DSM 6799, UniProt I4C827 1-302, looked up)
chain: MNSPSEVITIISYQRDRFVTTEELCFPFIGDVGGTIRGYRIFTACRTCGDKIFRIEDHLDRLYYSAASIYMKPPMNRDSLRTLLYALIQENRKAGFKDDLLIDIIFSGGLEDHTMAQSGSSAYLYIAVRELIVPPSEYYEKGVALATCSYMRMYPDVKLLNYMGAIMAHQTVVPLHNAYDVIFIYPPDGVTILEGSTFQVFFVNAEGTVVTPPLDGKILDSVTRRVVLQVLQQSGKIRLKEDRVRLDELETYPEAFMVSTTRNVLPVVRIDDRIIGSGQPGPVTREIMHLVEQYVTTFSLQQ
notes: DestiTA of Desulfomonile tiedjei DSM 6799, gene Desti_3054, Uniprot ID I4C827_DESTA, with T199Q; Made by single-primer site-directed mutagenesis; also called the T199Q variant; source: E. coli, purified as described for the WT DestiTA; not shown: His6, N-terminal, cleaved
B4: D-amino acid transaminase from Desulfomonile tiedjei (DestiTA), wild type (enzyme, Desulfomonile tiedjei DSM 6799, UniProt I4C827 1-302, looked up)
chain: MNSPSEVITIISYQRDRFVTTEELCFPFIGDVGGTIRGYRIFTACRTCGDKIFRIEDHLDRLYYSAASIYMKPPMNRDSLRTLLYALIQENRKAGFKDDLLIDIIFSGGLEDHTMAQSGSSAYLYIAVRELIVPPSEYYEKGVALATCSYMRMYPDVKLLNYMGAIMAHQTVVPLHNAYDVIFIYPPDGVTILEGSTFTVFFVNAEGTVVTPPLDGKILDSVTRRVVLQVLQQSGKIRLKEDRVRLDELETYPEAFMVSTTRNVLPVVRIDDRIIGSGQPGPVTREIMHLVEQYVTTFSLQQ
notes: PLP-dependent fold type IV transaminase DestiTA of Desulfomonile tiedjei DSM 6799, gene Desti_3054, Uniprot ID I4C827_DESTA; recombinant DestiTA printed as 302 a.a., 34.2 kDa; codon-optimised synthetic gene in modified pET-21d; N-terminal (His)6-TEV-tag removed with TEV protease; also called WT DestiTA; WT; source: E. coli Rosetta(DE3) pLysS, purified (HisTrap HP, TEV cleavage, second HisTrap HP, …)

Columns and labels:
DestiTA [1] = target: T2, DestiTA (Desulfomonile tiedjei, UniProt I4C827, T199Q); test: thermal shift assay (ThermoFluor) on apoenzyme, quadratic fit; assay type: binding; conditions: 50 mM K-phosphate, pH 8.0; 2 µM apoenzyme incubated with 0.5–500 µM PLP 1 h at 25 °C; covalent (Schiff base to K158)
T2 construct: gene Desti_3054; recombinant in E. coli Rosetta(DE3) pLysS, codon-optimized gene in modified pET-21d; N-terminal (His)6-TEV tag cut with TEV protease; homodimer about 68 kDa by gel filtration

DestiTA [2] = target: T1, DestiTA; test: as above; assay type: binding; conditions: 50 mM K-phosphate, pH 8.0; 2 µM apoenzyme incubated with 0.5–500 µM PLP 1 h at 25 °C; covalent (Schiff base to K158)
DestiTA [3] = target: T3, DestiTA (Desulfomonile tiedjei, UniProt I4C827, T199N); test: as above; assay type: binding; conditions: 50 mM K-phosphate, pH 8.0; 2 µM apoenzyme incubated with 0.5–500 µM PLP 1 h at 25 °C; covalent (Schiff base to K158)
T3 construct: gene Desti_3054; recombinant in E. coli Rosetta(DE3) pLysS, codon-optimized gene in modified pET-21d; N-terminal (His)6-TEV tag cut with TEV protease; homodimer about 68 kDa by gel filtration

purified protein [4] = substrate: O=C(O)CCC(=O)C(=O)O; test: purified protein; assay type: biochemical, Desulfomonile tiedjei; conditions: co-substrate D-alanine, 50 mM K-phosphate, 30 µM PLP
purified protein [5] = substrate: C[C@@H](N)C(=O)O; test: purified protein; conditions: co-substrate α-ketoglutarate, 50 mM K-phosphate, 30 µM PLP
[6] = target: the molecule itself; test: SEC; gel filtration of the purified enzyme; molecular weight approximately 68 kDa for the WT (subunit 34.2 kDa); self-association, homodimer
purified protein [7] = substrate: C[C@@H](N)c1ccccc1; test: purified protein; assay type: biochemical, Desulfomonile tiedjei; conditions: co-substrate α-ketoglutarate, 50 mM Na-pyrophosphate, pH 9.0, 50 °C, 30 µM PLP

| Molecule | Kd (DestiTA [1]) [µM] | Kd (DestiTA [2]) [µM] | Kd (DestiTA [3]) [µM] | Km (purified protein [4]; pH 6.5, 40 °C) [µM] | kcat (purified protein [4]; pH 6.5, 40 °C) [s⁻¹] | kcat/Km (purified protein [4]; pH 6.5, 40 °C) [M⁻¹ s⁻¹] | Km (purified protein [5]; pH 6.5, 40 °C, pH 6.5, 40.0 °C) [µM] | kcat (purified protein [5]; pH 6.5, 40 °C, pH 6.5, 40.0 °C) [s⁻¹] | kcat/Km (purified protein [5]; pH 6.5, 40 °C, pH 6.5, 40.0 °C) [M⁻¹ s⁻¹] | stoichiometry N [6] | Km (purified protein [4]; pH 8.0, 50 °C) [µM] | kcat (purified protein [4]; pH 8.0, 50 °C) [s⁻¹] | kcat/Km (purified protein [4]; pH 8.0, 50 °C) [M⁻¹ s⁻¹] | Km (purified protein [5]; pH 8.0, 50 °C, pH 8.0, 50.0 °C) [µM] | kcat (purified protein [5]; pH 8.0, 50 °C, pH 8.0, 50.0 °C) [s⁻¹] | kcat/Km (purified protein [5]; pH 8.0, 50 °C, pH 8.0, 50.0 °C) [M⁻¹ s⁻¹] | Km (purified protein [7]) [µM] | kcat (purified protein [7]) [s⁻¹] | kcat/Km (purified protein [7]) [M⁻¹ s⁻¹] |
| --- | --- | --- | --- | --- | --- | --- | --- | --- | --- | --- | --- | --- | --- | --- | --- | --- | --- | --- | --- |
| Cc1ncc(COP(=O)(O)O)c(C=O)c1O [PLP] | 2.2 ± 0.4 | 11 ± 1 | 33 ± 2 | – | – | – | – | – | – | – | – | – | – | – | – | – | – | – | – |
| B1 | – | – | – | 2800 ± 900 | 0.15 ± 0.01 | 54 ± 30 | 2900 ± 800 | 0.15 | 52 | 2 | – | – | – | – | – | – | – | – | – |
| B2 | – | – | – | – | – | – | – | – | – | 2 | 210 ± 30 | 5 ± 0.2 | 24000 ± 4000 | 520 ± 70 | 5 | 10000 ± 2000 | – | – | – |
| B3 | – | – | – | – | – | – | – | – | – | 2 | 450 ± 70 | 8.4 ± 0.4 | 19000 ± 4000 | 50000 ± 6000 | 8.4 | 170 | – | – | – |
| B4 | – | – | – | – | – | – | – | – | – | 2 | 110 ± 10 | 5.8 ± 0.2 | 53000 ± 8000 | 500 ± 100 | 5.8 | 11600 ± 3000 | 17000 ± 2000 | 0.7 ± 0.1 | 70 ± 20 |
